The values that follow are results of earlier work, collected in article PMC2983480.

The data set deals with Arp2/3 complex (Bos taurus) (UniProt A7MB62).

As for WASp VCA (from UniProt P42768), the Kd was 900 nM.
